Here are results for four molecules from patent US20180080926A1.

Experiment [1] has as its target mitochondrial mitofusins. As to the kind of experiment: cell-based or functional assay.
Experiment [2] addresses mitochondrial mitofusins. Nature of the experiment: cell-based or functional assay. This is another data set of the same source.

Where two headings read alike, the source gives them in different places.

On to TAT-398-418Gly (peptide), for which, in the experiment with mitochondrial mitofusins [1], the EC50 of mitochondrial shortening (suppressed fusion), mitochondrial aspect ratio in MEFs is 250 nM.

With TAT-367-384Gly (peptide), the EC50 of mitochondrial elongation (enhanced fusion), mitochondrial aspect ratio in MEFs with mitochondrial mitofusins [1] amounted to 280 nM.

As for GIMDSLHMAARGGYGRKKRRQRRR [GoFuse-C fusion construct], the EC50 of mitochondrial elongation (enhanced fusion), mitochondrial aspect ratio in MEFs in the experiment with mitochondrial mitofusins [2] stood at 389 nM.

GELLAQDYKLRGGYGRKKRRQRRR [TetherX-C fusion construct]: the EC50 of mitochondrial shortening (suppressed fusion), mitochondrial aspect ratio in MEFs with mitochondrial mitofusins [2] was determined as 171 nM.
